Data set [1] addresses recombinant human VEGF165 monomer (E. coli) (human, UniProt P15692-4 27-191). Nature of the data set: in vitro reduction and refolding of E. coli proteins. On the procedure: Recombinant human PLGF-1 (SEQ ID NO: 1) and VEGF₁ monomers were expressed in E. Coli as previously described⁴⁴. An equimolar of mixture of PLGF-1- and VEGF₁ homodimers, at a total protein concentration of 0.5 mg/ml, was incubated in reducing buffer (20 mM Tris-HC1, pH 8.0, 6 M guanidine-HC1, and 10 mM DTT) at 4° C. over night. The following day the protein solution was dialyzed against 10 volumes of refolding buffer (2 M urea, 20 mM Tris-HC1, pH 8.0, 2 mM GSH (glutathione-SH) and 0.5 mM GSSG (glutathione-S-S-glutathione)). Using this refolding protocol, a mixture of homodimeric PLGF-1 and VEGF₁ as well as heterodimeric PLGF-1/VEGF was generated.

Data set [2] concerns the molecule itself. The data set is described as follows: sandwich ELISA of cell lysates and conditioned media of hPLGF-1-KDEL-LLC cells. From the text: To quantify the amounts of intracellular and extracellular dimeric molecules, a sensitive sandwich ELISA assay was used to analyze cell lysates and conditioned media from transduced and non-transduced LLC cell lines. Specific antibodies were used against each factor, either two antibodies against the same factor but raised in different species (homodimers) or two antibodies against different factors (heterodimers). As expected, a high level of mVEGF homodimers was detected in conditioned media from controls, wt LLC and vector-transduced LLC cells (Table 1).

Data set [3] addresses T1, human VEGF165 expressed in transduced LLC cells (human), P15692.
T1 chain: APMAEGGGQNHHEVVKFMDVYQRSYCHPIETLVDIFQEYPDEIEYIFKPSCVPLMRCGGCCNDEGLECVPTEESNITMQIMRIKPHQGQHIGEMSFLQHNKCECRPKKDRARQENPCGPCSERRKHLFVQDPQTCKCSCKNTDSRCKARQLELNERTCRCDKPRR
The data set is described as follows: sandwich ELISA of conditioned medium of hVEGF-LLC cells, homodimer format. Conditions: remark: other sources report otherwise.

B1: recombinant human PLGF-1 monomer (E. coli) (ligand)
chain: LPAVPPQQWALSAGNGSSEVEVVPFQEVWGRSYCRALERLVDVVSEYPSEVEHMFSPSCVSLLRCTGCCGDENLHCVPVETANVTMQLLKIRSGDRPSYVELTFSQHVRCECRPLREKMKPERCGDAVPRR
Turning to B1, the binding result in data set [1] was “binds”.

B2: human PLGF-1 with C-terminal KDEL ER-retention signal (ligand)
chain: LPAVPPQQWALSAGNGSSEVEVVPFQEVWGRSYCRALERLVDVVSEYPSEVEHMFSPSCVSLLRCTGCCGDENLHCVPVETANVTMQLLKIRSGDRPSYVELTFSQHVRCECRPLREKMKPERCGDAVPRRKDEL
notes: Expressed in transduced LLC cells; also called hPLGF-1-KDEL; PLGF-1-KDEL
Consider B2, for which the binding result in data set [2] was “binds”.

B3: human VEGF165 expressed in transduced LLC cells, P15692 27-191 (ligand, UniProt P15692-4 27-191, looked up)
chain: T1 chain
With B3, the homodimer concentration in conditioned medium in data set [3] amounted to 41900 pg/mL.

Source of the values: patent publication US20080045469A1 (published 2008).
